Measured values published in US9187525B2, “Methods of treating ophthalmic diseases using NPR-B agonists” (Shire Orphan Therapies GmbH, dated 2015).
Numbered stars: 1 amine (or outer) side, 2 acyl side, 3 side chain; on linkers, the order of the positions; unused ones are H or OH. Square brackets hold non-standard residues; d marks the D form. Ends that are not written are not given here. * marks the point of attachment. Pro(trans-4-NH2) = O=C([C@@H]1C[C@@H](N[*:3])CN1[*:1])[*:2]; 1381 = (S)-3,3-dimethylbutan-2-amine, C[C@H](N*)C(C)(C)C; Sni = (S)-nipecotic acid, O=C([C@H]1CCCN([*:1])C1)[*:2]; Pro(trans-4-Ph) = O=C(O)[C@@H]1C[C@@H](c2ccccc2)CN1; NH((S)-tetralin-1-yl) = c1ccc2c(c1)CCC[C@@H]2N*; Phe(3,4-Cl2) = N[C@@H](Cc1ccc(Cl)c(Cl)c1)C(=O)O; 5121 = 1-propyl-butyl-amine, CCCC(CCC)N*; dGly(2-thienyl) = N[C@@H](C(=O)O)c1cccs1; Bmf = rac-2-amino-3-phenyl-butyric acid; Gly(2-thienyl) = N[C@H](C(=O)O)c1cccs1; Butanoyl(4-cHex) = O=C(CCCC1CCCCC1)*; Hyp = O=C(O)[C@@H]1C[C@@H](O)CN1; NMeI = CC[C@H](C)[C@H](NC)C(=O)O; NMeL = CN[C@@H](CC(C)C)C(=O)O; BB725 = not defined here; Octanoyl = CCCCCCCC(=O)*; 1860 = not defined here; 1906 = not defined here; 2906 = cyclobutyl-amine; Ac5c = NC1(C(=O)O)CCCC1; Api = NC1(C(=O)O)CCNCC1; Che = not defined here; Hexanoyl = CCCCCC(=O)*; Paf = not defined here; leu = not defined here; Occ = octanoic acid

T1: natriuretic peptide receptor-B (human)
T1 chain: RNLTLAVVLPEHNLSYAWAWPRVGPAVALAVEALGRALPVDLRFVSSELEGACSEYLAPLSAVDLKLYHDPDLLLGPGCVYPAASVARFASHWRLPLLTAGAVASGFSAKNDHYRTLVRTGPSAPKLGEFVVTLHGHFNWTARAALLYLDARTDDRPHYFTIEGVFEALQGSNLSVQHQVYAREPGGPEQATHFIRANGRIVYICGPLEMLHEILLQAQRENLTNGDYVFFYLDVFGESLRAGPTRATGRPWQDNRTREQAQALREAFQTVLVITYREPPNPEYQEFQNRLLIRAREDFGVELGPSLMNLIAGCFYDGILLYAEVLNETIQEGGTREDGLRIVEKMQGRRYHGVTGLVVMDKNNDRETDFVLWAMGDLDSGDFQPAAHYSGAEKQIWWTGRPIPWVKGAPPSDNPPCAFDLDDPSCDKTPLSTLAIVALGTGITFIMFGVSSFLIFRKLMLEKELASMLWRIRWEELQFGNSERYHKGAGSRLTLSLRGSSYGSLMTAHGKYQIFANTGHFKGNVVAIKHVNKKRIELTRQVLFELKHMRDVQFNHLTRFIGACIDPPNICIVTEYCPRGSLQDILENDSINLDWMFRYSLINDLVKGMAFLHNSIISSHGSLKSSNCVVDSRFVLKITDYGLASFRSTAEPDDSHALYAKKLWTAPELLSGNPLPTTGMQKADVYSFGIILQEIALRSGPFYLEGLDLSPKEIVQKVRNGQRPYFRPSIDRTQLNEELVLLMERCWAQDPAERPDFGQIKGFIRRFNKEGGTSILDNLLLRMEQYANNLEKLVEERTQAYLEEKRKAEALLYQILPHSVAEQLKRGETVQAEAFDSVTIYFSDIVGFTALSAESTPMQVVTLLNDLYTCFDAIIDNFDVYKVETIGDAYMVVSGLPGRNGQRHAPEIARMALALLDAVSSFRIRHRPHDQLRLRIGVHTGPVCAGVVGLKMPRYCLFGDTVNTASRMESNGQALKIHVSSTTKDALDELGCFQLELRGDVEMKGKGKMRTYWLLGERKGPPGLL

B1: JAL-1508 (peptide)
peptide: [Occ][Sni]FLL[Hyp][NMeL]DP[2906]
modifications: not fully specified (residue 4); printed as Occ-Sni-Phe-leu-Leu-Hyp-Nml-Asp-Pro-2906
B2: JAL-1513 (peptide)
peptide: [Occ][Sni]FLL[Hyp][NMeL]DP[5121]
modifications: not fully specified (residue 4); printed as Occ-Sni-Phe-leu-Leu-Hyp-Nml-Asp-Pro-5121
B3: JAL-1511 (peptide)
peptide: [Occ][Sni]FLL[Hyp][NMeL]DP[1906]
modifications: not fully specified (residue 4); printed as Occ-Sni-Phe-leu-Leu-Hyp-Nml-Asp-Pro-1906; reading uncertain
B4: JAL-1509_02 (peptide)
peptide: [Occ][Sni]FLL[Hyp][NMeL]DP[1381]
modifications: not fully specified (residue 4); printed as Occ-Sni-Phe-leu-Leu-Hyp-Nml-Asp-Pro-1381
B5: JAL-1510 (peptide)
peptide: [Occ][Sni]FLL[Hyp][NMeL]DP[1860]
modifications: not fully specified (residue 4); printed as Occ-Sni-Phe-leu-Leu-Hyp-Nml-Asp-Pro-1860; reading uncertain
B6: JAL-1493 (peptide)
peptide: Octanoyl-[Sni]X[leu]L[Hyp][NMeL]DRI-NH2
modifications: not fully specified (some residues); printed as Occ-Sni-Pcf-leu-Leu-Hyp-Nml-Asp-Arg-Ile-NH2
B7: JAL-1512_02 (peptide)
peptide: [Occ][Sni]FLL[Hyp][NMeL]DP[Che]
modifications: not fully specified (residue 4); printed as Occ-Sni-Phe-leu-Leu-Hyp-Nml-Asp-Pro-Che; reading uncertain
B8: JAL-1506 (peptide)
peptide: [Occ][Sni]FLL[Hyp][NMeL]DP[NH((S)-tetralin-1-yl)]
modifications: not fully specified (residue 4); printed as Occ-Sni-Phe-leu-Leu-Hyp-Nml-Asp-Pro-2118
B9: JAL-1496 (peptide)
peptide: [Occ][Sni][Phe(3,4-Cl2)]LL[Hyp][NMeL]DRI-NH2
modifications: not fully specified (residue 4); printed as Occ-Sni-Eaa-leu-Leu-Hyp-Nml-Asp-Arg-Ile-NH2
B10: JAL-1556 (peptide)
peptide: [Occ][dA]F[dL]L[Hyp][NMeL][BB725]RI-NH2
modifications: reading uncertain; also: printed as Occ-ala-Phe-leu-Leu-Hyp-Nml-(BB725)-Arg-Ile-NH2
B11: JAL-1509 (peptide)
peptide: [Occ][Sni]FLL[Hyp][NMeL]DP[1381]
modifications: not fully specified (residue 4); printed as Occ-Sni-Phe-leu-Leu-Hyp-Nml-Asp-Pro-1381
B12: JAL-1494 (peptide)
peptide: Octanoyl-[Sni]X[leu]L[Hyp][NMeL]DRI-NH2
modifications: not fully specified (some residues); printed as Occ-Sni-Pmf-leu-Leu-Hyp-Nml-Asp-Arg-Ile-NH2

Target: T1, natriuretic peptide receptor-B
Test: cell-based or functional assay

Which “EC50 group, cGMP in GTM-3 cells” value does the source give for [Occ][dA]F[dL]L[Hyp][NMeL][dGly(2-thienyl)]RI-NH2 [JAL-1558] here?
Its value is at most 1 µM.

How did the “EC50 group, cGMP in GTM-3 cells” value turn out when [Occ][Sni]F[Api]L[Pro(trans-4-NH2)][NMeL]DPI-NH2 [JAL-1561] was run?
The value was at most 1 µM.

With B1 as the binder, how does the “EC50 group, cGMP in GTM-3 cells” value read?
The value was at most 15 µM.

How did the “EC50 group, cGMP in GTM-3 cells” value turn out when Octanoyl-[Sni]Y[leu]L[Hyp][NMeL]DRI-NH2 (reading uncertain; also: printed as Occ-Sni-Tyr-leu-Leu-Hyp-Nml-Asp-Arg-Ile-NH2) [JAL-1489] was run?
Its value is at most 15 µM.

B2 was tested. Which “EC50 group, cGMP in GTM-3 cells” value did it give?
The value was at most 15 µM.

For B3, which “EC50 group, cGMP in GTM-3 cells” value is on record?
Its value is at most 5 µM.

For [Occ][Sni]F[dL]L[Pro(trans-4-NH2)][NMeL]DP[Che] (reading uncertain; also: printed as Occ-Sni-Phe-leu-Leu-Tap-Nml-Asp-Pro-Che) [JAL-1568], which “EC50 group, cGMP in GTM-3 cells” value is on record?
Its value is at most 1 µM.

Which “EC50 group, cGMP in GTM-3 cells” value does the source give for Hexanoyl-[dA][dA]FGLKLDR[Ac5c]-NH2 [JAL-0692] here?
Its value is at most 15 µM.

B4 was tested. Which “EC50 group, cGMP in GTM-3 cells” value did it give?
The value was at most 5 µM.

With B5 as the binder, how does the “EC50 group, cGMP in GTM-3 cells” value read?
The value was at most 1 µM.

How did the “EC50 group, cGMP in GTM-3 cells” value turn out when B6 was run?
The value was at most 1 µM.

How did the “EC50 group, cGMP in GTM-3 cells” value turn out when [Occ][dA]F[dL]L[Hyp][NMeL][Gly(2-thienyl)]RI-NH2 [JAL-1557] was run?
Its value is at most 15 µM.

With B7 as the binder, how does the “EC50 group, cGMP in GTM-3 cells” value read?
Its value is at most 1 µM.

For [Occ][Sni]F[Api]L[Hyp][NMeL]DRI-NH2 [JAL-1555], which “EC50 group, cGMP in GTM-3 cells” value is on record?
Its value is at most 1 µM.

For [Occ][Sni]FGL[Pro(trans-4-NH2)][NMeL]DPI-NH2 [JAL-1560], which “EC50 group, cGMP in GTM-3 cells” value is on record?
Its value is at most 5 µM.

With B8 as the binder, how does the “EC50 group, cGMP in GTM-3 cells” value read?
Its value is at most 5 µM.

Octanoyl-[Sni][Paf][leu]L[Hyp][NMeL]DRI-NH2 (reading uncertain; also: printed as Occ-Sni-Paf-leu-Leu-Hyp-Nml-Asp-Arg-Ile-NH2) [JAL-1492] was tested. Which “EC50 group, cGMP in GTM-3 cells” value did it give?
The value was at most 5 µM.

B9 was tested. Which “EC50 group, cGMP in GTM-3 cells” value did it give?
The value was at most 1 µM.

With Octanoyl-[Sni][Pro(trans-4-Ph)][leu]L[Hyp][NMeL]DRI-NH2 (reading uncertain; also: printed as Occ-Sni-Eay-leu-Leu-Hyp-Nml-Asp-Arg-Ile-NH2) [JAL-1491] as the binder, how does the “EC50 group, cGMP in GTM-3 cells” value read?
Its value is at most 5 µM.

For [Occ][Sni]FAL[Hyp][NMeL]DRI-NH2 [JAL-1553], which “EC50 group, cGMP in GTM-3 cells” value is on record?
The value was at most 15 µM.

Which “EC50 group, cGMP in GTM-3 cells” value does the source give for B10 here?
The value was at most 1 µM.

Which “EC50 group, cGMP in GTM-3 cells” value does the source give for B11 here?
The value was at most 5 µM.

Which “EC50 group, cGMP in GTM-3 cells” value does the source give for [Occ][Sni]F[dL]L[Pro(trans-4-NH2)][NMeL]DPI-NH2 [JAL-1559] here?
The value was at most 1 µM.

For [Occ][Sni]F[dL]L[Hyp][NMeL]DR[NMeI]-NH2 [JAL-1569], which “EC50 group, cGMP in GTM-3 cells” value is on record?
Its value is at most 1 µM.

Which “EC50 group, cGMP in GTM-3 cells” value does the source give for {Butanoyl(4-cHex)}-[dA][dA]FGLKLDRI-NH2 [JAL-0693] here?
The value was at most 15 µM.

How did the “EC50 group, cGMP in GTM-3 cells” value turn out when Octanoyl-[Sni][Bmf][leu]L[Hyp][NMeL]DRI-NH2 (reading uncertain; also: printed as Occ-Sni-Bmf-leu-Leu-Hyp-Nml-Asp-Arg-Ile-) [JAL-1490] was run?
Its value is at most 15 µM.

Which “EC50 group, cGMP in GTM-3 cells” value does the source give for [Occ][Sni]FLL[Hyp][NMeL]DRI-NH2 [JAL-1554] here?
The value was at most 5 µM.

With B12 as the binder, how does the “EC50 group, cGMP in GTM-3 cells” value read?
Its value is at most 1 µM.
